From the Human Domainome abundance scans (Beltran et al. 2025)
± gives the uncertainty stated by the source.

B1: CD2-associated protein, residues 109 to 169; numbered along this chain, Q9Y5K6 (parent)
chain: KKRQCKVLFEYIPQNEDELELKVGDIIDINEEVEEGWWSGTLNNKLGLFPSNFVKELEVTD

Variants of: B1
Assay: abundance fitness (aPCA) (normalised: wild type 0, dead -1); higher = more abundant; growth selection in yeast, the domain comes from the species named
Conditions: Homo sapiens
Y11P gave an abundance fitness of -0.481 ± 0.22. Work on L42V yielded an abundance fitness of -0.064 ± 0.1. V7A showed an abundance fitness of -0.03 ± 0.076. W37A showed an abundance fitness of -0.855 ± 0.32. Variant D28T has an abundance fitness of -0.209 ± 0.14. With K2N the abundance fitness was -0.227 ± 0.28. Work on G36C yielded an abundance fitness of -0.467 ± 0.089. For P13R, the abundance fitness was 0.026 ± 0.094. Variant E31W has an abundance fitness of -0.755 ± 0.2. For K55H, the abundance fitness was -0.035 ± 0.22. Variant L48P has an abundance fitness of -0.403 ± 0.12. Work on E34Q yielded an abundance fitness of -0.147 ± 0.23. With L46Q the abundance fitness was 0.022 ± 0.099. With K45Q the abundance fitness was 0.04 ± 0.26. Variant N44A has an abundance fitness of -0.048 ± 0.14. In the case of S39V, the abundance fitness is reported as 0.094 ± 0.074. Variant P50R has an abundance fitness of -0.064 ± 0.075. F49E gave an abundance fitness of -0.872 ± 0.45. With V33Q the abundance fitness was -0.55 ± 0.29. V54I showed an abundance fitness of -0.113 ± 0.12. C5P showed an abundance fitness of -0.945 ± 0.17. In the case of I27K, the abundance fitness is reported as -1.03 ± 0.42. Work on E34F yielded an abundance fitness of -0.393 ± 0.3. W37V gave an abundance fitness of -0.255 ± 0.13. Variant F49A has an abundance fitness of -0.755 ± 0.31. For G47Y, the abundance fitness was -0.434 ± 0.19. With R3G the abundance fitness was -0.21 ± 0.065. In the case of E56Y, the abundance fitness is reported as -0.717 ± 0.28. Variant R3A has an abundance fitness of -0.664 ± 0.14. In the case of D17L, the abundance fitness is reported as -0.13 ± 0.13. Q4R gave an abundance fitness of 0.209 ± 0.17. L48G showed an abundance fitness of -0.618 ± 0.11. K55C showed an abundance fitness of -0.142 ± 0.11. In the case of E10W, the abundance fitness is reported as -0.904 ± 0.31. In the case of W37R, the abundance fitness is reported as -0.375 ± 0.14. For T60S, the abundance fitness was -0.039 ± 0.1. With K6F the abundance fitness was -0.042 ± 0.059. Variant E20M has an abundance fitness of -0.229 ± 0.24. In the case of K55S, the abundance fitness is reported as -0.259 ± 0.08. In the case of P50K, the abundance fitness is reported as -0.226 ± 0.12. For F53T, the abundance fitness was -0.255 ± 0.19. In the case of V54S, the abundance fitness is reported as -0.94 ± 0.36. Variant L8A has an abundance fitness of -0.34 ± 0.2. Work on P50H yielded an abundance fitness of 0.078 ± 0.17. Variant L19R has an abundance fitness of -0.68 ± 0.17. In the case of D28V, the abundance fitness is reported as -0.314 ± 0.082. K6Y showed an abundance fitness of 0.219 ± 0.055. Q4V gave an abundance fitness of 0.118 ± 0.22. W37T gave an abundance fitness of -0.366 ± 0.28. L42E gave an abundance fitness of -0.922 ± 0.34. T41M gave an abundance fitness of -0.162 ± 0.12. N15P showed an abundance fitness of -0.639 ± 0.17. V59P gave an abundance fitness of -0.138 ± 0.14. I27C gave an abundance fitness of -0.692 ± 0.32. Work on K2E yielded an abundance fitness of 0.145 ± 0.3. In the case of T41Q, the abundance fitness is reported as -0.062 ± 0.13. In the case of E10S, the abundance fitness is reported as 0.081 ± 0.076. V59N showed an abundance fitness of -0.342 ± 0.47. In the case of K45I, the abundance fitness is reported as -0.433 ± 0.29. For E58A, the abundance fitness was -0.305 ± 0.15. In the case of F53C, the abundance fitness is reported as 0.067 ± 0.12. N52P showed an abundance fitness of -0.228 ± 0.12. Variant I29C has an abundance fitness of -0.57 ± 0.28. Work on E20T yielded an abundance fitness of -0.409 ± 0.24. Variant V7C has an abundance fitness of -0.293 ± 0.2. For L21M, the abundance fitness was -0.319 ± 0.37. W37H showed an abundance fitness of -0.656 ± 0.31. Work on I29R yielded an abundance fitness of -0.678 ± 0.22. Work on V23G yielded an abundance fitness of -0.458 ± 0.2. Variant K45N has an abundance fitness of -0.183 ± 0.2. With E34D the abundance fitness was -0.3 ± 0.15. For V54W, the abundance fitness was -0.903 ± 0.24. Variant Q14W has an abundance fitness of -0.788 ± 0.32. R3N showed an abundance fitness of -0.388 ± 0.11. In the case of G47P, the abundance fitness is reported as -0.82 ± 0.17. S39L gave an abundance fitness of 0.057 ± 0.061. Work on V59S yielded an abundance fitness of 0.163 ± 0.088. With E31G the abundance fitness was -0.187 ± 0.16. For I12Q, the abundance fitness was -0.267 ± 0.27. L42M gave an abundance fitness of -0.486 ± 0.23. D17E gave an abundance fitness of 0.128 ± 0.11. With V54R the abundance fitness was -0.969 ± 0.31. For Y11H, the abundance fitness was -0.286 ± 0.34. In the case of C5Y, the abundance fitness is reported as -0.097 ± 0.07. Variant K2Y has an abundance fitness of -0.183 ± 0.41. In the case of W38H, the abundance fitness is reported as -0.679 ± 0.29. E20S showed an abundance fitness of -0.317 ± 0.17. N43K showed an abundance fitness of -0.544 ± 0.33. Variant E18L has an abundance fitness of -0.684 ± 0.19. Variant D17H has an abundance fitness of -0.343 ± 0.24. Work on G40V yielded an abundance fitness of -0.306 ± 0.14. In the case of L46D, the abundance fitness is reported as 0.034 ± 0.082. In the case of K22C, the abundance fitness is reported as -0.08 ± 0.39. Variant I12V has an abundance fitness of -0.218 ± 0.18. In the case of L19S, the abundance fitness is reported as -0.826 ± 0.45. N52Y showed an abundance fitness of -0.34 ± 0.15. In the case of D61N, the abundance fitness is reported as -0.273 ± 0.28. L8V gave an abundance fitness of -0.035 ± 0.11. N15C showed an abundance fitness of -0.3 ± 0.13. Variant G40L has an abundance fitness of -1.17 ± 0.29. With V33Y the abundance fitness was -0.349 ± 0.4. I12E showed an abundance fitness of -0.122 ± 0.19. For C5S, the abundance fitness was -0.353 ± 0.056. For I27V, the abundance fitness was 0.03 ± 0.32. Variant W38K has an abundance fitness of -0.669 ± 0.2. V23M gave an abundance fitness of -0.34 ± 0.17. For K22H, the abundance fitness was 0.219 ± 0.29. For F9E, the abundance fitness was 0.173 ± 0.13. With K45V the abundance fitness was -0.556 ± 0.16. S39N showed an abundance fitness of -0.25 ± 0.11. Variant K6P has an abundance fitness of -0.761 ± 0.094. Variant E35H has an abundance fitness of -0.318 ± 0.35. L57Q gave an abundance fitness of -0.485 ± 0.27. E31T gave an abundance fitness of -0.087 ± 0.12. With G47T the abundance fitness was -0.644 ± 0.16. In the case of E34H, the abundance fitness is reported as 0.179 ± 0.14. Work on G36I yielded an abundance fitness of -0.605 ± 0.11. I12D showed an abundance fitness of -0.303 ± 0.23. Work on F53S yielded an abundance fitness of 0.037 ± 0.096. With Q14R the abundance fitness was -0.183 ± 0.15. G36H gave an abundance fitness of -0.375 ± 0.09. L21A gave an abundance fitness of -0.838 ± 0.19. E16M showed an abundance fitness of 0.147 ± 0.24. L57E gave an abundance fitness of -0.133 ± 0.14. With G36A the abundance fitness was -0.357 ± 0.087. V33M gave an abundance fitness of 0.085 ± 0.27. Variant K22E has an abundance fitness of -0.66 ± 0.38. Variant E18V has an abundance fitness of -0.989 ± 0.44. Work on Y11S yielded an abundance fitness of -0.572 ± 0.15. E32V showed an abundance fitness of -0.155 ± 0.3. In the case of N52R, the abundance fitness is reported as 0.048 ± 0.079. Work on V33I yielded an abundance fitness of 0.129 ± 0.23. L48Q gave an abundance fitness of -0.298 ± 0.092. With V54L the abundance fitness was -0.753 ± 0.15. In the case of L8M, the abundance fitness is reported as 0.33 ± 0.22. E35T showed an abundance fitness of -0.185 ± 0.15. With F9T the abundance fitness was 0.222 ± 0.12. I27L gave an abundance fitness of -0.436 ± 0.11. In the case of E31Y, the abundance fitness is reported as -0.122 ± 0.25. With S51E the abundance fitness was -0.762 ± 0.33. With E20C the abundance fitness was 0.107 ± 0.24. In the case of L48D, the abundance fitness is reported as -0.821 ± 0.21. V23S gave an abundance fitness of -0.414 ± 0.21. Work on L8D yielded an abundance fitness of -0.267 ± 0.25. For G24E, the abundance fitness was -0.227 ± 0.23. Work on W38S yielded an abundance fitness of -0.49 ± 0.092. Variant G24L has an abundance fitness of -0.781 ± 0.22. For E10K, the abundance fitness was -0.215 ± 0.12. Variant E58K has an abundance fitness of 0.027 ± 0.12. G36R gave an abundance fitness of -0.323 ± 0.09. I26M showed an abundance fitness of -0.369 ± 0.12. With N52H the abundance fitness was -0.348 ± 0.21. Y11V gave an abundance fitness of -0.715 ± 0.13. F9C gave an abundance fitness of -0.303 ± 0.22. For E20V, the abundance fitness was -0.435 ± 0.25. I29M gave an abundance fitness of 0.038 ± 0.16. Variant I29F has an abundance fitness of -0.274 ± 0.15. In the case of E35S, the abundance fitness is reported as 0.213 ± 0.13. Variant D61A has an abundance fitness of -0.29 ± 0.22. For S51L, the abundance fitness was -0.366 ± 0.088. For L42D, the abundance fitness was -0.241 ± 0.3. In the case of V23I, the abundance fitness is reported as -0.143 ± 0.24. Variant K1G has an abundance fitness of -0.122 ± 0.13. C5D showed an abundance fitness of -0.626 ± 0.14. For F9H, the abundance fitness was 0.145 ± 0.35. Variant N43P has an abundance fitness of -0.791 ± 0.36. With R3P the abundance fitness was -0.572 ± 0.15.
